Data reported in US20240174744A1 (SCIRHOM, published 2024).
Changes are numbered by the printed parent chain.

T1: hiR2-FL-I566E-T7 (human iRhom2 full length I566E, 3 x T7 tag) (human, UniProt Q6PJF5 1-856)
T1 sequence: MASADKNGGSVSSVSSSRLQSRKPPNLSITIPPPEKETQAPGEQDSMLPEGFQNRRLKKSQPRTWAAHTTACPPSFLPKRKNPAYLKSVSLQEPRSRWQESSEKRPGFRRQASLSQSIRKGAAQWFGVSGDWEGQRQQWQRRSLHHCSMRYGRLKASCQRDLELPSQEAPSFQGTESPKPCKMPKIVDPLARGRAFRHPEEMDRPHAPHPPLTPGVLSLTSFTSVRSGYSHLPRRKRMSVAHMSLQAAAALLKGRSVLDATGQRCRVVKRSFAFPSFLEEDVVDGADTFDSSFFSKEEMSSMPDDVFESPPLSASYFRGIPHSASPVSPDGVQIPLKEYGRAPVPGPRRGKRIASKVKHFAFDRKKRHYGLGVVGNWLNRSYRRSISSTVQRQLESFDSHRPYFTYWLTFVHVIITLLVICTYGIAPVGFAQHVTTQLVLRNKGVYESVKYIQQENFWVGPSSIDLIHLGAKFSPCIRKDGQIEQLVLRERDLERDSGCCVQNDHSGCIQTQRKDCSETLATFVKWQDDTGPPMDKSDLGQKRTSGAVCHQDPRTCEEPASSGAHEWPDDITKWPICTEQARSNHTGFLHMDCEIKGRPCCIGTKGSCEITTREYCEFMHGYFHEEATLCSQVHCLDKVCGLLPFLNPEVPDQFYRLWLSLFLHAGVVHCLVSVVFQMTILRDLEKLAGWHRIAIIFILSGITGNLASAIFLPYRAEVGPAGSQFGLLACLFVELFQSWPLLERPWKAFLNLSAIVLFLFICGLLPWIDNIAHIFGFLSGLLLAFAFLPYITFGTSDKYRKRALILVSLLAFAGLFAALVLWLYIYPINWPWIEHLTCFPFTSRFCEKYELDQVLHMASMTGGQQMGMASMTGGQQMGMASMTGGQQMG

B1: antibody 43 (antibody, V domains shown)
VH: QVALKESGPGILQPSQTLSLTCSFSGFSLSTFGMGVGWIRQSSGKGLEWLANIWWDDDKYYNPALKSRLTISKDASKNQAFLKIANVDTADTATYYCARIGNYGSNYWYFDVWGTGTTVTVSS
VL: QIVLTQSPAIMSASPGERVTMTCSANSRISYMYWYQQKPGSSPRLLIYDTSNLASGVPVRFSGSGSGTSYSLTISRMEAEDAATYNCQQWSSYPLTFGAGTKLELK
notes: Mouse IgG, kappa light chain; also called clone #43
B2: antibody 42 (antibody, V domains shown)
VH: B1 VH with A3T, F24L, M34R, S42P, N52H, D58E, A75T, A80V, K83R, G101Q
VL: B1 VL with Q1L, R18K, S24G, N26T, Y33F, L45V, M77V, A82V, N86Y, S91N
notes: Mouse IgG, kappa light chain; also called clone #42; m42
B3: antibody 44 (antibody, V domains shown)
VH: B1 VH with A3T, S42P, G44E, N52H, A75T, A80I, A85T, D91E, A98S
VL: QIVLTQSPAVMSASPGEKVTMTCTASSSVYYMYWYQQTPGSSPRLLIYDTSNLASGVPVRFSGSGSGTSYSLTISRMEAEDAATYYCQQWNTYPLTFGAGTKLELK
notes: Mouse IgG, kappa light chain; also called clone #44; m44
B4: antibody 22 (antibody, V domains shown)
VH: B1 VH with A3T, S42P, N52H, D58E, P63S, D74A, A75T, A80V, G101S, D111N
VL: B3 VL with I2V, V10L, T24S, S26G, Y30S, T38K, L45V, V59A, S62T, T92S
notes: Mouse IgG, kappa light chain; also called clone #22; m22
B5: antibody 34 (antibody, V domains shown)
VH: QVTLKESGPGILQPSQTLSLTCSFSGFSLSTFSLGVGWIRQSSGKGLEWLAHIWWDDEKYYNPALKSRLTISKDTSKNQVFLKIANVDAADTATYYCARAYYSKSYYALDYWGQGTSVTVSS
VL: DIQMTQSPSSLSASLGERVSLTCRASQEISGYLSWLQQKPDGTIKRLIYAASTLDSGVPKRFSGSRSGSDYSLAISSLESEDFADYYCLQYANFPFTFGSGTKLEIK
notes: Mouse IgG, kappa light chain; also called clone #34; m34

The binders below were run against T1, hiR2-FL-I566E-T7 (human iRhom2 full …) (assay: FACS on cells of the row I566E, vs human iR2 wild type = 100%).
Excerpt: In brief, immortalized MEF-DKO hiR2-FL-G563D-T7, MEF-DKO hiR2-FL-A564P-T7, MEF-DKO hiR2-FL-I566E-T7, MEF-DKO hiR2-FL-D569E-T7, MEF-DKO hiR2-FL-E579K-T7, MEF-DKO hiR2-FL-Q580N-T7, MEF-DKO hiR2-FL-A581S-T7, MEF-DKO hiR2-FL-R582A-T7, MEF-DKO hiR2-FL-S583G-T7, MEF-DKO hiR2-FL-G587N-T7, MEF-DKO hiR2-FL-F588H-T7, MEF-DKO hiR2-FL-L589P-T7, MEF-DKO hiR2-FL-E594V-T7, MEF-DKO hiR2-FL-K596T-T7, MEF-DKO hiR2-FL-S607R-T7, MEF-DKO hiR2-FL-T612S-T7, MEF-DKO hiR2-FL-E617D-T7, MEF-DKO hiR2-FL-H620R-T7, MEF-DKO hiR2-FL-L636M-T7, MEF-DKO hiR2-FL-K638D-T7, MEF-DKO hiR2-FL-I771F-T7, MEF-DKO hiR2-FL-I825V-T7, MEF-DKO hiR2-FL-I828V-T7, MEF-DKO hiR2-FL-N829R-T7, MEF-DKO hiR2-FL-W830C-T7, MEF-DKO hiR2-FL-P831E-T7, MEF-DKO hiR2-FL-1833C-T7, MEF-DKO hiR2-FL-H835F-T7, MEF-DKO hiR2-FL-F839I-T7, MEF-DKO hiR2-FL-S843D-T7, MEF-DKO hiR2-FL-Q853A-T7, MEF-DKO hiR2-FL-V854Q-T7 and MEF-DKO hiR2-FL-R844K-T7 cells were harvested with 10 mM EDTA in PBS, washed and resuspended in FACS buffer (PBS, 3% FBS, 0.05% sodium azide), and seeded in Nunc U-bottom 96-well plates (Thermo Fisher Scientific, USA) at approximately 1×10⁵ cells per well. To pellet cells and remove supernatants, the plates were centrifuged at 1,500 rpm and 4° C. for 3 minutes. For primary staining, cells were resuspended in 100 μl per well of either FACS buffer alone (controls) or the purified antibodies 3, 5, 16, 22, 34, 42, 43, 44, 48, and 50 of the present disclosure at 3 μg/ml in FACS buffer and incubated on ice for 1 hour. Afterwards, plates were centrifuged at 1,500 rpm and 4° C. for 3 minutes and washed twice with 200 μl per well of FACS buffer. For secondary staining, cells were spun down and resuspended in 100 μl per well of PE-conjugated goat anti-mouse IgG F(ab′)2 detection fragment (Dianova, Germany) diluted 1:100 in FACS buffer. Protected from light, the cell suspensions were incubated on ice for 1 hour. Plates were then centrifuged at 1,500 rpm and 4° C. for 3 minutes and washed three times with 200 μl per well of FACS buffer. Finally, cells were resuspended in 150 μl per well of FACS buffer and analyzed using a BD Accuri™ C6 Plus flow cytometer (Becton Dickinson, Germany).

Row | Binder | grade of loss of binding vs wild type
1 | B1 | 2 grade (2 => 60% loss of binding vs wild type)
2 | B2 | 2 grade (2 => 60% loss of binding vs wild type)
3 | B3 | 2 grade (2 => 60% loss of binding vs wild type)
4 | B4 | 2 grade (2 => 60% loss of binding vs wild type)
5 | B5 | 2 grade (2 => 60% loss of binding vs wild type)
